Here are results for 6 molecules from paper PMC4239081, “Differential Interaction Kinetics of a Bipolar Structure-Specific Endonuclease with DNA Flaps Revealed by Single-Molecule Imaging”.

The target of one series is PCNA (Pyrococcus abyssi) (UniProt Q9UYX8). The following applies: cited from earlier work.
For series [1], the target named is T1, NucS (PabNucS) (Pyrococcus abyssi, UniProt Q9V2E8 1-251).
T1 sequence: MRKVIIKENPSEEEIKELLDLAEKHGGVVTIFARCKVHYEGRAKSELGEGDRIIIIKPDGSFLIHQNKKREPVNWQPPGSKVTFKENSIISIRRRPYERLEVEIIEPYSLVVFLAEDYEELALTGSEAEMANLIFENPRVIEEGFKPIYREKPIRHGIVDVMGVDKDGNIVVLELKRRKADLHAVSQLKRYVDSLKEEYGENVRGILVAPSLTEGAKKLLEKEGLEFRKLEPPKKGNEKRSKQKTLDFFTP
The series can be described thus: single-molecule TIRF (koff/kon); 50 mM NaCl, 23 C, no divalent cations; koff 0.52 s-1; Imaging buffer B2: 20 mM HEPES, 150 mM NaCl (or 50 mM), 0.1 mg/ml casein Blocking Reagent; pH not given; 23 C without divalent cations, or 45 C with or without. Particulars: protein: recombinant; tags: Alexa488 label; chain copies: 2; label: Alexa488 on F3D47; 3' flap of 20 nt at ss/dsDNA junction; three strands.

For series [2], the target named is T1, NucS (PabNucS). As to the kind of experiment: single-molecule TIRF (koff/kon); 150 mM NaCl, 23 C, no divalent cations; koff 0.076 s-1; Imaging buffer B2: 20 mM HEPES, 150 mM NaCl (or 50 mM), 0.1 mg/ml casein Blocking Reagent; pH not given; 23 C without divalent cations, or 45 C with or without. Particulars: protein: recombinant; tags: Alexa488 label; chain copies: 2; label: Alexa488 on F3D47; 3' flap of 20 nt at ss/dsDNA junction; three strands.

Series [3] has as its target T2, NucS (PabNucS);PCNA (PabPCNA) (Pyrococcus abyssi;Pyrococcus abyssi, UniProt Q9V2E8;Q9UYX8 1-251;1-249, |).
T2 sequence 1: T1 sequence
T2 sequence 2: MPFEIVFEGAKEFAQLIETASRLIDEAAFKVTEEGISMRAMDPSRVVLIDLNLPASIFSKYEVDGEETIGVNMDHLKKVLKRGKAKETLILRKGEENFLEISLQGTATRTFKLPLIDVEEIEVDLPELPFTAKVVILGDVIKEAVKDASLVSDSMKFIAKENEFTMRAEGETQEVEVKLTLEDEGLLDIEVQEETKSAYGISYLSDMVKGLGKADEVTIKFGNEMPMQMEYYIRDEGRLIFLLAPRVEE
As to the kind of experiment: single-molecule TIRF (koff/kon); 45 C, PCNA, no Mn2+; koff 0.90 s-1; Imaging buffer B2: 20 mM HEPES, 150 mM NaCl (or 50 mM), 0.1 mg/ml casein Blocking Reagent; pH not given; 23 C without divalent cations, or 45 C with or without. The following applies: protein: recombinant;recombinant; tags: Alexa488 label;; chain copies: 2;3; label: Alexa488 on F5D42; 5' flap of 20 nt; three strands; D27 as printed has a mismatch to 49N.

Series [4] concerns the target T1, NucS (PabNucS). The series can be described thus: single-molecule TIRF (koff/kon); 45 C, no Mn2+, no PCNA; koff 0.50 s-1; Imaging buffer B2: 20 mM HEPES, 150 mM NaCl (or 50 mM), 0.1 mg/ml casein Blocking Reagent; pH not given; 23 C without divalent cations, or 45 C with or without. Particulars: protein: recombinant; tags: Alexa488 label; chain copies: 2; label: Alexa488 on F5D42; 5' flap of 20 nt; three strands; D27 as printed has a mismatch to 49N.

Series [5] addresses T2, NucS (PabNucS);PCNA (PabPCNA). The series can be described thus: single-molecule TIRF (koff/kon); 45 C, PCNA, 5 mM MnCl2 (cleaving); koff 0.67 s-1; Imaging buffer B2: 20 mM HEPES, 150 mM NaCl (or 50 mM), 0.1 mg/ml casein Blocking Reagent; pH not given; 23 C without divalent cations, or 45 C with or without. Particulars: protein: recombinant;recombinant; tags: Alexa488 label;; chain copies: 2;3; label: Alexa488 on F5D42; 5' flap of 20 nt; three strands; D27 as printed has a mismatch to 49N.

Series [6] deals with T1, NucS (PabNucS). The series can be described thus: single-molecule TIRF (koff/kon); 45 C, no Mn2+, no PCNA; koff 0.027 s-1; Imaging buffer B2: 20 mM HEPES, 150 mM NaCl (or 50 mM), 0.1 mg/ml casein Blocking Reagent; pH not given; 23 C without divalent cations, or 45 C with or without. Particulars: protein: recombinant; tags: Alexa488 label; chain copies: 2; label: Alexa488 on F3D47; 3' flap of 20 nt; three strands.

Series [7] concerns the target T2, NucS (PabNucS);PCNA (PabPCNA). The series can be described thus: single-molecule TIRF (koff/kon); 45 C, 50 nM PCNA, no Mn2+; koff 0.55 s-1; Imaging buffer B2: 20 mM HEPES, 150 mM NaCl (or 50 mM), 0.1 mg/ml casein Blocking Reagent; pH not given; 23 C without divalent cations, or 45 C with or without. Particulars: protein: recombinant;recombinant; tags: Alexa488 label;; chain copies: 2;3; label: Alexa488 on F3D47; 3' flap of 20 nt; three strands.

For series [8] the target is unchanged. The series can be described thus: single-molecule TIRF (koff/kon); 45 C, PCNA, 5 mM MnCl2 (cleaving); koff 0.85 s-1; Imaging buffer B2: 20 mM HEPES, 150 mM NaCl (or 50 mM), 0.1 mg/ml casein Blocking Reagent; pH not given; 23 C without divalent cations, or 45 C with or without. Particulars: protein: recombinant;recombinant; tags: Alexa488 label;; chain copies: 2;3; label: Alexa488 on F3D47; 3' flap of 20 nt; three strands.

The target in series [9] is T1, NucS (PabNucS). The series can be described thus: single-molecule TIRF (koff/kon); 50 mM NaCl, 23 C, no divalent cations; koff 0.35 s-1; Imaging buffer B2: 20 mM HEPES, 150 mM NaCl (or 50 mM), 0.1 mg/ml casein Blocking Reagent; pH not given; 23 C without divalent cations, or 45 C with or without. Particulars: protein: recombinant; tags: Alexa488 label; chain copies: 2; label: Alexa488 on F5D42; 5' flap of 20 nt at ss/dsDNA junction; three strands; D27 as printed has a mismatch to 49N.

For series [10], the target named is T1, NucS (PabNucS). The series can be described thus: single-molecule TIRF (koff/kon); 150 mM NaCl, 23 C, no divalent cations; koff 0.026 s-1; Imaging buffer B2: 20 mM HEPES, 150 mM NaCl (or 50 mM), 0.1 mg/ml casein Blocking Reagent; pH not given; 23 C without divalent cations, or 45 C with or without. The following applies: protein: recombinant; tags: Alexa488 label; chain copies: 2; label: Alexa488 on F5D42; 5' flap of 20 nt at ss/dsDNA junction; three strands; D27 as printed has a mismatch to 49N.

Series [11] deals with T1, NucS (PabNucS). The series can be described thus: single-molecule TIRF; 150 mM NaCl, 23 C; kon 0.04e6 M-1s-1, no significant binding; Imaging buffer B2: 20 mM HEPES, 150 mM NaCl (or 50 mM), 0.1 mg/ml casein Blocking Reagent; pH not given; 23 C without divalent cations, or 45 C with or without. The following applies: protein: recombinant; tags: Alexa488 label; chain copies: 2; duplex; strands as printed not perfectly complementary.

Regarding NucS (from UniProt Q9V2E8), the dissociation constant (Kd) with PCNA (Pyrococcus abyssi) is 15 nM.

B1: 3'-flap (49N/F3D47/D22) (structured_DNA)
DNA 1: AGCTACCATGCCTGCACGAATTAAGCAATTCGTAATCATGGTCATAGCT
DNA 2: AGCTATGACCATGATTACGAATTGCTTGGAATCCTGACGAACTGTAG
DNA 3: AATTCGTGCAGGCATGGTAGCT
modifications: biotin (two at each end of 49N)
Regarding B1, the Kd came out at 17.7 ± 0.4 nM in the series with NucS (PabNucS) [1] and 7.8 ± 0.3 nM with NucS (PabNucS) [2].

B2: 5'-flap, one biotin (45 C) (structured_DNA)
DNA 1: B1 DNA 1
DNA 2: GATGTCAAGCAGTCCTAAGGAATTCGTGCAGGCATGGTAGCT
DNA 3: AGCTATGATCATGATTACGAATTGCTT
modifications: one biotin at the extremity
For the molecule B2, the Kd in series [3] was found to be 195 ± 20 nM; with NucS (PabNucS) [4] it was 625 ± 470 nM; in series [5], 145 ± 15 nM.

B3: 3'-flap, one biotin (45 C) (structured_DNA)
DNA 1: B1 DNA 1
DNA 2: B1 DNA 2
DNA 3: AATTCGTGCAGGCATGGTAGCT
modifications: one biotin at the extremity
On to B3, for which the Kd with NucS (PabNucS) [6] worked out at 12 ± 3 nM; in [7], 161 ± 29 nM; in [8] it was 250 ± 47 nM.

B4: 5'-flap (49N/F5D42/D27) (structured_DNA)
DNA 1: B1 DNA 1
DNA 2: B2 DNA 2
DNA 3: AGCTATGATCATGATTACGAATTGCTT
modifications: biotin (two at each end of 49N)
On to B4, for which the values for the Kd with NucS (PabNucS) [9] and with NucS (PabNucS) [10] were 9.4 ± 0.4 nM and 2.6 ± 0.2 nM, respectively.

B5: dsDNA (40N/40NC) (dsDNA)
DNA 1: CCTGCACGAATTAAGCAATTCGATATCATGGTCATAGCT
DNA 2: AGCTATGACCATGATTACGAATTGCTTAATTCGTGCAGG
modifications: biotin? (immobilized)
As to B5, the binding result with NucS (PabNucS) [11] is “no binding”.

One may read the Kd as a measure of binding affinity in units of concentration.
